Tested on: MS2 coat protein
Experiment: apparent KD of MS2 coat protein; designed switch direction (-1 OFF switch, 1 ON switch): -1; higher = weaker reporter binding
Outline: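 The reported apparent KD is a per-design median over clusters, from curve fits of normalised cluster fluorescence. Protein titrations used SNAP-549-labelled MS2 coat protein, doubled from 0.7 or 1.5 nM to 3 µM, in Tris-HCl pH 7.5 buffer with KCl, MgCl2, BSA, DTT, tRNA and Tween-20, with no input, 200 uM small-molecule ligand, or an oligonucleotide input. The RNA switches were transcribed on Illumina chips by stalled E. coli RNA polymerase.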

[1] = input ligand: microRNA oligo, concentration not stated
[2] = Eterna round: R95, input ligand: FMN 200 uM
[3] = Eterna round: R95, input ligand: microRNA oligo, concentration not stated
[4] = Eterna round: R95, input ligand: none

Sequence: AAACCCUGAGGAUAUACAUAACAACAAAGCCUCACAUGCCAACAUGAGGAUCACCCAUGUAGAAGGCAGGCCAA [Mod R3 Insanara 13 - Jieux - Exclusion 2] (Eterna round: R97, puzzle: Exclusion 2)
- apparent KD of MS2 coat protein (input ligand: FMN 200 uM): 19.2 nM
- apparent KD of MS2 coat protein (input ligand: none): 10.1 nM

Sequence: AAACCUUGAGGAUAUACAUAACAACAAAGCCUCACGUGCCAACAUGAGGAUCACCCAUGUAGAAGGCAGGCCAA [Mod R3 Insanara 11 - Jieux - Exclusion 2] (Eterna round: R97, puzzle: Exclusion 2)
- apparent KD of MS2 coat protein (input ligand: FMN 200 uM): 15.6 nM
- apparent KD of MS2 coat protein (input ligand: none): 12.7 nM

Sequence: AAACGGAUAGGAUAUACUUGAGGAUCACCCAAGUGAUCAGUCCCGGGAAUUCCCGCAAGUAGAAGGAUCAAAAG [Arisrevexe] (Eterna round: R97, puzzle: Exclusion 3)
- apparent KD of MS2 coat protein (input ligand: FMN 200 uM): 1120 nM
- apparent KD of MS2 coat protein (input ligand: none): 162 nM

Sequence: AAACGGCAGGGAGGAUAUGCCUACCUGGGUCGUCUUCAAACAUGAGGAUCACCCAUGUAGUCGACGCAGAAGGCCCUCAAAGCC [Ontiis] (Eterna round: R96, puzzle: Exclusion NG 2)
- apparent KD of MS2 coat protein (input ligand: FMN 200 uM): 38.7 nM
- apparent KD of MS2 coat protein [1]: 8.22 nM
- apparent KD of MS2 coat protein (input ligand: none): 12.7 nM

Sequence: AAACGUAGACAGGAUAUCUGCGCCCUUGGUUAAAGAGAAGGGUCUACAUGAGGAUCACCCAUGUGGUGUAACUC [Dibedididi] (puzzle: Exclusion 6)
- apparent KD of MS2 coat protein [2]: 13.8 nM
- apparent KD of MS2 coat protein [3]: 18.4 nM
- apparent KD of MS2 coat protein [4]: 23.6 nM

Sequence: AAACUCCCAACCACCGGGAACAUGAGGAUCACCCAUGUGGCGUGACUCAUACGGGCUUUUUGUUCGUUUUAUUCACG [Soesesqu] (puzzle: Sensor v3, turn-off variant 1)
- apparent KD of MS2 coat protein [2]: 69 nM
- apparent KD of MS2 coat protein [3]: 20.1 nM
- apparent KD of MS2 coat protein [4]: 72.5 nM

Sequence: AAAGAACAUGAGGAUCACCCAUGUGAGGAUAUGCGAAAACCGCUGGCGCACCAGACGGGCAGAAGGCAUAUGGU [Aonustiri] (puzzle: Exclusion 1)
- apparent KD of MS2 coat protein [3]: 48.9 nM

Sequence: AAAGAAGAGAGAAAAUAACACAUGAGGAUCACCCAUGUGAGAUGUUGAGGGUGAUACAGGCUUUUUGCUCGUCUUAU (puzzle: Sensor v3, turn-off variant 1)
- apparent KD of MS2 coat protein [2]: 231 nM
- apparent KD of MS2 coat protein [3]: 283 nM
- apparent KD of MS2 coat protein [4]: 321 nM

Sequence: AAAGAAGAGAGAAAAUAACACAUGAGGAUCACCCAUGUGCGAUGUUGAGGGUGAUACAGGCUUUUUGCUCGUCUUAU (puzzle: Sensor v3, turn-off variant 1)
- apparent KD of MS2 coat protein [2]: 311 nM
- apparent KD of MS2 coat protein [3]: 512 nM
- apparent KD of MS2 coat protein [4]: 199 nM

Sequence: AAAGACAUGAGGAUCACCCAUGUACUGGUGGAGCUCGUGAGGCAGGAUAUCGCGUGCGAAGCUCGCGAGAAGGGCCAGGAAUUU [Cexela] (Eterna round: R96, puzzle: Exclusion NG 3)
- apparent KD of MS2 coat protein (input ligand: FMN 200 uM): 416 nM
- apparent KD of MS2 coat protein [1]: 98.2 nM
- apparent KD of MS2 coat protein (input ligand: none): 109 nM

Sequence: AAAGAGCAAGGAUAUACAUGAGGAUCACCCAUGUAGUACGUGAACCAGGUUUUCCUGAGUAGAAGGUGCAGACA [Dibira] (puzzle: Exclusion 3)
- apparent KD of MS2 coat protein [3]: 28.1 nM

Sequence: AAAGCGUCAGGAUAUCCAAUAUAUGACAUGAGGAUCACCCAUGUUUCCACUCGUACCUCCGGAGAAGGGACAAAUA [Ex5 #86] (Eterna round: R97, puzzle: Exclusion 5)
- apparent KD of MS2 coat protein (input ligand: FMN 200 uM): 32.5 nM
- apparent KD of MS2 coat protein (input ligand: none): 38.1 nM

Sequence: AAAUAACCUCUAGGAUAUGUGUACGUAUAGUGCGCAGAAGGAGACAUGAGGAUCACCCAUGUACACACACAACAAACGACCACC (Eterna round: R96, puzzle: Exclusion NG 1)
- apparent KD of MS2 coat protein (input ligand: FMN 200 uM): 26.1 nM
- apparent KD of MS2 coat protein [1]: 27.3 nM
- apparent KD of MS2 coat protein (input ligand: none): 30.4 nM

Sequence: AAAUAAUGAGGAUAUACAGUGUAAAACAUGAGGAUCACCCAUGUUCUUCAAUUAGUAUUUGUAGAAGGCAUAGGUA [JR_Ex5_Sub094] (Eterna round: R97, puzzle: Exclusion 5)
- apparent KD of MS2 coat protein (input ligand: FMN 200 uM): 38.5 nM
- apparent KD of MS2 coat protein (input ligand: none): 60.7 nM

Sequence: AAAUACAAGCAGAGAUCCUACAUGAGGAUCACCCAUGUGCUCGUCUUAUAAAGUACUAUCACGAAAGUGAUAGUACA [Sensor 3, v1 - 17] (puzzle: Sensor v3, turn-off variant 1)
- apparent KD of MS2 coat protein [2]: 184 nM
- apparent KD of MS2 coat protein [3]: 41.8 nM
- apparent KD of MS2 coat protein [4]: 218 nM

Sequence: AAAUACAAGUAAAGAUCCUACAUGAGGAUCACCCAUGUGCUCGUCUUGUAAAGUACUAUCACGAAAGUGAUAGUACA [Sensor 3, v1 - 22] (puzzle: Sensor v3, turn-off variant 1)
- apparent KD of MS2 coat protein [2]: 45.7 nM
- apparent KD of MS2 coat protein [3]: 31.5 nM
- apparent KD of MS2 coat protein [4]: 51 nM

Sequence: AAAUACAAGUAAAGAUUCUACAUGAGGAUCACCCAUGUGCUCGUCUUAUAAAGUACUAUCACGAAAGUGAUAGUACA [Sensor 3, v1 - 26] (puzzle: Sensor v3, turn-off variant 1)
- apparent KD of MS2 coat protein [2]: 17 nM
- apparent KD of MS2 coat protein [3]: 188 nM
- apparent KD of MS2 coat protein [4]: 15 nM

Sequence: AAAUACAAGUAGAGAUUCUACAUGAGGAUCACCCAUGUGCUCGUCUUAUAAAGUACUAUCACGAAAGUGAUAGUACA [Sensor 3, v1 - 37] (puzzle: Sensor v3, turn-off variant 1)
- apparent KD of MS2 coat protein [2]: 14.2 nM
- apparent KD of MS2 coat protein [3]: 211 nM
- apparent KD of MS2 coat protein [4]: 14.1 nM

Sequence: AAAUAGCAUGAGGAUAUUGAACUGUAUAUAGUACGAGAAGGCAUGACAUGAGGAUCACCCAUGUUUUGUUGGGA [EX6 #3] (Eterna round: R97, puzzle: Exclusion 6)
- apparent KD of MS2 coat protein (input ligand: FMN 200 uM): 114 nM
- apparent KD of MS2 coat protein (input ligand: none): 33.2 nM

Sequence: AAAUAGCUAGAGGAUAUCGGAUAGAAUUUAUUACGAGAAGGUUAGACAUGAGGAUCACCCAUGUUCUGUUGGGA [EX6 #22] (Eterna round: R97, puzzle: Exclusion 6)
- apparent KD of MS2 coat protein (input ligand: FMN 200 uM): 70 nM
- apparent KD of MS2 coat protein (input ligand: none): 33.8 nM

Sequence: AAAUAGGGAGGAUAUCCAAUAUAUGACAUGAGGAUCACCCAUGUUUCCACUCGUACCUCCGGAGAAGGCCCAUAAA [Ex5 #3] (Eterna round: R97, puzzle: Exclusion 5)
- apparent KD of MS2 coat protein (input ligand: FMN 200 uM): 20.9 nM
- apparent KD of MS2 coat protein (input ligand: none): 21.8 nM

Sequence: AAAUCGGUAGAGGAUAUUGUACAGGAAACGGUGCAAGAAGGUUACACAUGAGGAUCACCCAUGUUAAAUUGCGA [EX6 #52] (Eterna round: R97, puzzle: Exclusion 6)
- apparent KD of MS2 coat protein (input ligand: FMN 200 uM): 21.4 nM
- apparent KD of MS2 coat protein (input ligand: none): 17.3 nM

Sequence: AAAUCUCACGUAAGGAUAUCCUGGGCAACGUCCACGGAGAAGGUACAUGAGGAUCACCCAUGUGCUCGCUAUAC [BmEX4 C.1] (Eterna round: R97, puzzle: Brourd's mod of Exclusion 4)
- apparent KD of MS2 coat protein (input ligand: FMN 200 uM): 25.2 nM
- apparent KD of MS2 coat protein (input ligand: none): 19.7 nM

Sequence: AAAUCUGAGAAGGAUAUGGUACAGGAAAUGGUGCCAGAAGGUUUCACAUGAGGAUCACCCAUGUCGAAUAGUGA [EX6 #65] (Eterna round: R97, puzzle: Exclusion 6)
- apparent KD of MS2 coat protein (input ligand: FMN 200 uM): 29.6 nM
- apparent KD of MS2 coat protein (input ligand: none): 19.3 nM

Sequence: AAAUGCAAGUAAAGAUUCUACAUGAGGAUCACCCAUGUGCUCGUCUUAUAAAGUACUAUCACGAAAGUGAUAGUACA [Sensor 3, v1 - 35] (puzzle: Sensor v3, turn-off variant 1)
- apparent KD of MS2 coat protein [2]: 14.2 nM
- apparent KD of MS2 coat protein [3]: 100 nM
- apparent KD of MS2 coat protein [4]: 14.2 nM

Sequence: AAAUUAAGUGUGAGGAUAUGCUGGUCCAUAGAUCAGCAGAAGGCACAUGAGGAUCACCCAUGUAAUAUAUUUAA [Mat - Exclusion 4 - JL Mod - D51] (puzzle: Brourd's mod of Exclusion 4)
- apparent KD of MS2 coat protein [2]: 134 nM
- apparent KD of MS2 coat protein [3]: 29.4 nM
- apparent KD of MS2 coat protein [4]: 23 nM

Sequence: AAAUUAAGUGUGAGGAUAUGCUGGUCCUUAGAUCAGCAGAAGGCACAUGAGGAUCACCCAUGUAAUAUAUUUAA [Mat - Exclusion 4 - JL Mod - D50] (puzzle: Brourd's mod of Exclusion 4)
- apparent KD of MS2 coat protein [3]: 35.4 nM

Sequence: AAAUUAGCAAGUAGAUCCGACAUGAGGAUCACCCAUGUAAUCUAAAAUUACGCUGCACGAAAGUGCGCUCGUCUUAG [Sensor-V1 #13] (Eterna round: R97, puzzle: Sensor, turn-off variant 1)
- apparent KD of MS2 coat protein (input ligand: FMN 200 uM): 362 nM
- apparent KD of MS2 coat protein (input ligand: none): 405 nM

Sequence: AAAUUAGCAAGUAGGUCCGACAUGAGGAUCACCCAUGUAAUCUGAAAUUACGCUGCACGAAAGUGCGCUCGUCUUAG [Sensor-V1 #11] (Eterna round: R97, puzzle: Sensor, turn-off variant 1)
- apparent KD of MS2 coat protein (input ligand: FMN 200 uM): 149 nM
- apparent KD of MS2 coat protein (input ligand: none): 149 nM

Sequence: AAAUUGCUAGAGGAUAUCGGAUAGGAUCUAUCGCGAGAAGGCUGGACAUGAGGAUCACCCAUGUUCUGUUGGGA [EX6 #29] (Eterna round: R97, puzzle: Exclusion 6)
- apparent KD of MS2 coat protein (input ligand: FMN 200 uM): 57.4 nM
- apparent KD of MS2 coat protein (input ligand: none): 25.2 nM

Sequence: AAAUUGGUAGAGGAUAUCGCACAGGAAACACUGCGAGAAGGCUGCACAUGAGGAUCACCCAUGUUUAGUUGCGA [EX6 #37] (Eterna round: R97, puzzle: Exclusion 6)
- apparent KD of MS2 coat protein (input ligand: FMN 200 uM): 22.5 nM
- apparent KD of MS2 coat protein (input ligand: none): 16.6 nM

Sequence: AAAUUGGUAGAGGAUAUUGUACAGGAAACGGUGCGAGAAGGUUGCACAUGAGGAUCACCCAUGUUAAGUUGCGA [EX6 #46] (Eterna round: R97, puzzle: Exclusion 6)
- apparent KD of MS2 coat protein (input ligand: FMN 200 uM): 39.9 nM
- apparent KD of MS2 coat protein (input ligand: none): 25.7 nM

Sequence: AAAUUGUGAGGAUAUCAGGUGUGCUAGCGUACUGGUACAUCUGAGAAGGCACAUGAGGAUCACCCAUGUUUCUU [Mat - Exclusion 4 - Mod of JL - D43] (puzzle: Exclusion 4)
- apparent KD of MS2 coat protein [3]: 15.2 nM

Sequence: AAAUUUGGAGGAUAUCCAUUGGGAAACAUGAGGAUCACCCAUGUAAUAAAAGGGAAAUCCGGAGAAGGCCAAAUUU [-20.39, -19.1 kcal, 39% A] (Eterna round: R97, puzzle: Exclusion 5)
- apparent KD of MS2 coat protein (input ligand: FMN 200 uM): 45.7 nM
- apparent KD of MS2 coat protein (input ligand: none): 19.1 nM

Sequence: AACAACGUAGGAUAUGCAGCUACGGACUUGAGGAUCACCCAAGUGAUCAUAGCCCGUAUAGCAGAAGGGCGGAUCA [Arontebi] (Eterna round: R97, puzzle: Exclusion 5)
- apparent KD of MS2 coat protein (input ligand: FMN 200 uM): 321 nM
- apparent KD of MS2 coat protein (input ligand: none): 224 nM

— the supplement of paper PMC9170038
